This series concerns the molecule itself. Briefly: FRET or BRET; HEK293T biosensor cells co-expressing the CFP and the YFP fusion of one aSyn variant, seeded with increasing amounts of sonicated recombinant full-length aSyn(WT) fibrils with Lipofectamine 2000, 48 h, CFP-YFP FRET by flow cytometry, normalized to aSyn(WT) with 100 nM fibrils. A general note: In BRET a luciferase serves as donor, and the signal depends on an acceptor being close.

A value given as a limit tells only on which side of the number the result lay.

B1: aSyn amino acids 35 to 110, CFP/YFP (domain or fragment)
chain: not shown
Take B1: the “fold sensitivity of the biosensor against full-length WT aSyn” value is at least 4 fold.

The values are drawn from article PMC10610913, “Saturation mutagenesis of α-synuclein reveals monomer fold that modulates aggregation” (Science Advances, 2023).
